Measured values taken from publication PMC6327041, “Histone H3 binding to the PHD1 domain of histone demethylase KDM5A enables active site remodeling” (Nature Communications, 2019).

Assays:
[1] = molecular target: C-terminally 5-carboxyfluorescein (5-FAM) conjugated Ac-H3K4me3 31mer peptide; test: fluorescence polarisation; direct FP: Ac-H3K4me3-fluorescein 31mer with varying KDM5A_(1-797); 400 µM MnCl2 and 400 µM N-OG; with 350 µM H3 10mer effector peptide; Kd read at 1 min (the signal is stable for at least 1 h)
[2] = molecular target: C-terminally 5-carboxyfluorescein (5-FAM) conjugated Ac-H3K4me3 31mer peptide; test: fluorescence polarisation; direct FP: Ac-H3K4me3-fluorescein 31mer with varying KDM5A_(1-797); 400 µM MnCl2 and 400 µM N-OG; no effector peptide; Kd read at 1 min (the signal decreases over time)
[3] = substrate: C[C@H](N)C(=O)N[C@@H](CCCNC(=N)N)C(=O)N[C@H](C(=O)N[C@@H](CCCC[N+](C)(C)C)C(=O)N[C@@H](CCC(N)=O)C(=O)N[C@H](C(=O)N[C@@H](C)C(=O)N[C@@H](CCCNC(=N)N)C(=O)N[C@@H](CCCCN)C(=O)N[C@@H](CO)C(=O)O)[C@@H](C)O)[C@@H](C)O; test: KDM5A demethylation, FDH-coupled formaldehyde release assay; format: biochemical, human; conditions: other: H3K4me3 10mer as substrate (Figure S3, response to reviewers)
Description: WT KDM5A1-797 was expressed in Sf21 cells following Invitrogen Bac-to-Bac baculovirus expression system protocol. KDM5A1-797 was cloned into a pFASTBAC HTA vector. Purified bacmid was transfected in Sf21 cells. Approximately 0.8 × 10^−5 cells per well of a six-well dish were allowed to attach in 2 ml of SF-900 II SFM media containing 50 U ml^−1 penicillin and 50 μg ml^−1 streptomycin. While cells attached, 8 μl of Cellfectin II reagent (Invitrogen) in 100 μl of unsupplemented Grace’s medium was mixed with ~2–5 μg of bacmid in 100 μl of unsupplemented Grace’s medium and incubated for 15–30 min at 25 °C. Once cells were attached, media was removed and cells were washed with 2 ml of Grace’s unsupplemented media. The bacmid DNA:Cellfectin mixture was then diluted to 1 ml with Grace’s unsupplemented media and added to the well. Cells with bacmid:Cellfectin II mixture were incubated for 5 h at 27 °C. After 5 h of incubation, bacmid:Cellfectin mixture was removed and replaced with 2 ml of SF-900 II SFM 50 U ml^−1 penicillin and 50 μg ml^−1 streptomycin. […]
Reactions were performed in 50 mM HEPES, 50 mM KCl, 1 mM α-ketoglutarate, 50 μM Fe(NH4)2(SO4)2, 2 mM ascorbic acid, 2 mM NAD^+ and 0.05 U FDH (Sigma) at pH 7.5 at room temperature. […] An NADH standard curve was used to convert fluorescence to concentration of product formed. […] Michaelis–Menten parameters were determined using Graphpad Prism.

Row | Binder | Kd [1] | Kd [2] | Km [3]
1 | KDM5A_(1-797) (enzyme) MAGVGPGGYAAEFVPPPECPVFEPSWEEFTDPLSFIGRIRPLAEKTGICKIRPPKDWQPPFACEVKSFRFTPRVQRLNELEAMTRVRLDFLDQLAKFWELQGSTLKIPVVERKILDLYALSKIVASKGGFEMVTKEKKWSKVGSRLGYLPGKGTGSLLKSHYERILYPYELFQSGVSLMGVQMPNLDLKEKVEPEVLSTDTQTSPEPGTRMNILPKRTRRVKTQSESGDVSRNTELKKLQIFGAGPKVVGLAMGTKDKEDEVTRRRKVTNRSDAFNMQMRQRKGTLSVNFVDLYVCMFCGRGNNEDKLLLCDGCDDSYHTFCLIPPLPDVPKGDWRCPKCVAEECSKPREAFGFEQAVREYTLQSFGEMADNFKSDYFNMPVHMVPTELVEKEFWRLVSSIEEDVIVEYGADISSKDFGSGFPVKDGRRKILPEEEEYALSGWNLNNMPVLEQSVLAHINVDISGMKVPWLYVGMCFSSFCWHIEDHWSYSINYLHWGEPKTWYGVPSHAAEQLEEVMRELAPELFESQPDLLHQLVTIMNPNVLMEHGVPVYRTNQCAGEFVVTFPRAYHSGFNQGYNFAEAVNFCTADWLPIGRQCVNHYRRLRRHCVFSHEELIFKMAADPECLDVGLAAMVCKELTLMTEEETRLRESVVQMGVLMSEEEVFELVPDDERQCSACRTTCFLSALTCSCNPERLVCLYHPTDLCPCPMQKKCLRYRYPLEDLPSLLYGVKVRAQSYDTWVSRVTEALSANFNHKKDLIELRVMLEDAEDRKYPENDLFRKLRDAVKEAETCASV | 62.5 µM | 56.9 µM | –
2 | KDM5A1-797 (Homo sapiens) (protein, KDM5A1-797 was cloned into a pFASTBAC HTA vector; His (N, cleaved yes); made in house; host or cells: Sf21 insect cells (baculovirus)) MAGVGPGGYAAEFVPPPECPVFEPSWEEFTDPLSFIGRIRPLAEKTGICKIRPPKDWQPPFACEVKSFRFTPRVQRLNELEAMTRVRLDFLDQLAKFWELQGSTLKIPVVERKILDLYALSKIVASKGGFEMVTKEKKWSKVGSRLGYLPGKGTGSLLKSHYERILYPYELFQSGVSLMGVQMPNLDLKEKVEPEVLSTDTQTSPEPGTRMNILPKRTRRVKTQSESGDVSRNTELKKLQIFGAGPKVVGLAMGTKDKEDEVTRRRKVTNRSDAFNMQMRQRKGTLSVNFVDLYVCMFCGRGNNEDKLLLCDGCDDSYHTFCLIPPLPDVPKGDWRCPKCVAEECSKPREAFGFEQAVREYTLQSFGEMADNFKSDYFNMPVHMVPTELVEKEFWRLVSSIEEDVIVEYGADISSKDFGSGFPVKDGRRKILPEEEEYALSGWNLNNMPVLEQSVLAHINVDISGMKVPWLYVGMCFSSFCWHIEDHWSYSINYLHWGEPKTWYGVPSHAAEQLEEVMRELAPELFESQPDLLHQLVTIMNPNVLMEHGVPVYRTNQCAGEFVVTFPRAYHSGFNQGYNFAEAVNFCTADWLPIGRQCVNHYRRLRRHCVFSHEELIFKMAADPECLDVGLAAMVCKELTLMTEEETRLRESVVQMGVLMSEEEVFELVPDDERQCSACRTTCFLSALTCSCNPERLVCLYHPTDLCPCPMQKKCLRYRYPLEDLPSLLYGVKVRAQSYDTWVSRVTEALSANFNHKKDLIELRVMLEDAEDRKYPENDLFRKLRDAVKEAETCASV | – | – | 770 µM
